In publication PMC9482650, “Quantitative fragmentomics allow affinity mapping of interactomes” (Nature Communications, 2022):
Each block holds one binder with its values, some of them ahead of it.

Key:
Test in all cases: holdup assay
Parameters in all cases: key: below the threshold = too weak to quantify, mostly under pKd 3.1 to 4
[1] = target: T1, RAPGEF6, Q8TEU7
T1 sequence (Q8TEU7 525-625, limits assumed, looked up): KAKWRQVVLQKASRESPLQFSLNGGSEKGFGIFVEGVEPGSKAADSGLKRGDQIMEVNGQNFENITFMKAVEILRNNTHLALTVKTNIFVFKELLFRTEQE

[2] = target: T2, MPDZ_10, O75970
T2 sequence (O75970 1624-1722, limits assumed, looked up): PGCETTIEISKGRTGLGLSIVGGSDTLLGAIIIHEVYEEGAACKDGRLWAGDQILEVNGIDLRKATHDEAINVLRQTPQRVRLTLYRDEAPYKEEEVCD

[3] = target: T3, PTPN13_1, Q12923
T3 sequence (Q12923 1088-1188, limits assumed, looked up): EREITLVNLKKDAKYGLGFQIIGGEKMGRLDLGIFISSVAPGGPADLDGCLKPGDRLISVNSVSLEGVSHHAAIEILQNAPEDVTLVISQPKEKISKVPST

[4] = target: PTPN3, P26045
PTPN3, P26045, sequence (P26045 505-587): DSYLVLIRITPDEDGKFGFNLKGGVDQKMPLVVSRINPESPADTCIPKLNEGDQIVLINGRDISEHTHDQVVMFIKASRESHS

[5] = target: TJP1_3, Q07157
TJP1_3, Q07157, sequence (Q07157 416-512): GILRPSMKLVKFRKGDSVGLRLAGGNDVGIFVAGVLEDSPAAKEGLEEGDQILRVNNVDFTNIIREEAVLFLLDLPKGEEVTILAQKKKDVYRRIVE

[6] = target: GRIP2_5, Q9C0E4
GRIP2_5, Q9C0E4, sequence (Q9C0E4 544-642): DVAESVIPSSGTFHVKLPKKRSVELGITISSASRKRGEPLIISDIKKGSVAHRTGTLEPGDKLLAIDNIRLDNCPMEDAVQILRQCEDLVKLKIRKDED

[7] = target: MAGI1_2, Q96QZ7
MAGI1_2, Q96QZ7, sequence (Q96QZ7 456-580): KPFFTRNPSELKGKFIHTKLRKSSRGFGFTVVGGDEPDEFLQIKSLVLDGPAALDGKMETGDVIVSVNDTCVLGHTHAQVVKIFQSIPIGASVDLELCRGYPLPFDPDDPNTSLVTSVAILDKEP

[8] = target: T4, ARHGAP21, Q5T5U3
T4 sequence (Q5T5U3 45-169, limits assumed, looked up): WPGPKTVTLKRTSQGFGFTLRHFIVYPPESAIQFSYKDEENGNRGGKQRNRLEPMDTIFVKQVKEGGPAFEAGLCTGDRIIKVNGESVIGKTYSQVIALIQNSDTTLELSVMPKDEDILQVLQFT

[9] = target: T5, CARD11, Q9BXL7
T5 sequence (Q9BXL7 662-765, limits assumed, looked up): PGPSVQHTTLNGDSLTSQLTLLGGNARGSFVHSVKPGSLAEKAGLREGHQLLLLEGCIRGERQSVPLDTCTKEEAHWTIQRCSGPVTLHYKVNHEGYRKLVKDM

[10] = target: T6, DVL3, Q92997
T6 sequence (Q92997 244-331, limits assumed, looked up): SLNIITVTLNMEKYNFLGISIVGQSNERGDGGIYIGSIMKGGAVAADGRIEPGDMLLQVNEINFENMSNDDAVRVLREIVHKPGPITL

[11] = target: IL16_4, Q14005
IL16_4, Q14005, sequence (Q14005 1229-1329): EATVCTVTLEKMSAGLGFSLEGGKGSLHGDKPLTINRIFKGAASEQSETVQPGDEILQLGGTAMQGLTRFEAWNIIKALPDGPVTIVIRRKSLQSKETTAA

[12] = target: PDLIM1, O00151
PDLIM1, O00151, sequence (O00151 1-87): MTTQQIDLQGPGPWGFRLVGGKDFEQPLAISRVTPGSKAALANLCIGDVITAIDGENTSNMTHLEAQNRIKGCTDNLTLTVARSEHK

[13] = target: NHERF4_4, Q86UT5
NHERF4_4, Q86UT5, sequence (Q86UT5 464-550): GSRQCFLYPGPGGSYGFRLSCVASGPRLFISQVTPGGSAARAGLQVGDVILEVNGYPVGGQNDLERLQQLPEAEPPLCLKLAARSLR

[14] = target: HTRA2, O43464
HTRA2, O43464, sequence (O43464 355-458): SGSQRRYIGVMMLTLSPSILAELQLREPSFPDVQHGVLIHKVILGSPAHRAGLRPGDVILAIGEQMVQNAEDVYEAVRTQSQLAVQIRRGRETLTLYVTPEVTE

[15] = target: T7, RADIL, Q96JH8
T7 sequence (Q96JH8 971-1071, limits assumed, looked up): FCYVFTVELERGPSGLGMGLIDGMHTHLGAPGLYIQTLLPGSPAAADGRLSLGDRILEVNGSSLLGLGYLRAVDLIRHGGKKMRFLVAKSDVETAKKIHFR

[16] = target: T8, SIPA1L2, Q9P2F8
T8 sequence (Q9P2F8 945-1036, limits assumed, looked up): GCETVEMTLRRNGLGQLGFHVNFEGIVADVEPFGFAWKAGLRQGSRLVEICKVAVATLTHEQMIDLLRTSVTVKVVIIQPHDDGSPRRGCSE

[17] = target: ARHGEF12, Q9NZN5-2
ARHGEF12, Q9NZN5-2, sequence (Q9NZN5 other isoform, or with tags, fused parts or gaps): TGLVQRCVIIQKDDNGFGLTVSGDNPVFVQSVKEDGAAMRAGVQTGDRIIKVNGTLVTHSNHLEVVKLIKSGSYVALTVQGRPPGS

[18] = target: GIPC2, Q8TF65
GIPC2, Q8TF65, sequence (Q8TF65 112-203): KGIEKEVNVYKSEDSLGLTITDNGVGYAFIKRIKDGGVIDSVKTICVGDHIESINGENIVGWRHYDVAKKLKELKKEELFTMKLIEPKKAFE

[19] = target: Inadl_3, Q8NI35
Inadl_3, Q8NI35, sequence (Q8NI35 359-469): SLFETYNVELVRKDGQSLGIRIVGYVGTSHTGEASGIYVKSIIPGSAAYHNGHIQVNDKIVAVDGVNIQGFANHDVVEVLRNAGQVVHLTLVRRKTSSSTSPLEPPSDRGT

[20] = target: T9, ARHGEF11, O15085
T9 sequence (O15085 42-136, limits assumed, looked up): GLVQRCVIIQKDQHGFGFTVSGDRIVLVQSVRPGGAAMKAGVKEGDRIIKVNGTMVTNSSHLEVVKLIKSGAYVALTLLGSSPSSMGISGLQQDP

[21] = target: Inadl_2, Q8NI35
Inadl_2, Q8NI35, sequence (Q8NI35 238-335): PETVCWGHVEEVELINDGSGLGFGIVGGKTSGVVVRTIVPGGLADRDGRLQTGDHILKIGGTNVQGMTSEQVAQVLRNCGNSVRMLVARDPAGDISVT

[22] = target: T10, MPP6, Q9NZW5
T10 sequence (Q9NZW5 125-219, limits assumed, looked up): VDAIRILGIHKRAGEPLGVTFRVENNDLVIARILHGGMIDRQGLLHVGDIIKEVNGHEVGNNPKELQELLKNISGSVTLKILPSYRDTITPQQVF

[23] = target: T11, MPDZ_5, O75970
T11 sequence (O75970 695-796, limits assumed, looked up): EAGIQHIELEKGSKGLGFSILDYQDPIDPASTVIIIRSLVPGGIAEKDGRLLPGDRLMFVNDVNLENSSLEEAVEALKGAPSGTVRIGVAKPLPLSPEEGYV

[24] = target: T12, LIN7C, Q9NUP9
T12 sequence (Q9NUP9 88-185, limits assumed, looked up): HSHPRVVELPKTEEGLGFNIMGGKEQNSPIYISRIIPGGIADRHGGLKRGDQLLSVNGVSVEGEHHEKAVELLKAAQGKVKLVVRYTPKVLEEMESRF

[25] = target: Inadl_6, Q8NI35
Inadl_6, Q8NI35, sequence (Q8NI35 1058-1167): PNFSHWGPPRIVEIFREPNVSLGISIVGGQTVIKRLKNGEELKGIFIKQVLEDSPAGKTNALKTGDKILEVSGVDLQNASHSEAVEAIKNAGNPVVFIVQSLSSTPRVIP

[26] = plain residues with an end cap or a label only (N-terminal biotin on a linker: ahx)
[27] = plain residues with an end cap or a label only (N-terminal biotin on a linker: ttds)

pKd [1, 26]: below the threshold
pKd [2, 26]: 3.9
pKd [3, 26]: below the threshold
pKd [4, 26]: 4.23
pKd [5, 26]: below the threshold
pKd [6, 26]: below the threshold
pKd [7, 26]: 3.85
pKd [8, 26]: below the threshold
pKd [9, 26]: below the threshold
pKd [10, 26]: 3.99
pKd [11, 26]: below the threshold
pKd [12, 26]: 4.31
pKd [13, 26]: below the threshold
pKd [14, 26]: 4.42
pKd [15, 26]: 4.91
pKd [16, 26]: below the threshold
pKd [17, 26]: below the threshold
pKd [18, 26]: below the threshold
pKd [19, 26]: 4.19
pKd [20, 26]: 3.58
pKd [21, 26]: below the threshold
pKd [22, 26]: below the threshold
pKd [23, 26]: 4.03
pKd [24, 26]: 4.98
pKd [25, 26]: 3.55
Binder: TVICWPGSLV [LNX2, Q8N448]

pKd [1, 27]: below the threshold
pKd [2, 27]: below the threshold
pKd [3, 27]: below the threshold
pKd [4, 27]: 5.01
pKd [5, 27]: below the threshold
pKd [6, 27]: below the threshold
pKd [7, 27]: 4.01
pKd [8, 27]: 4.2
pKd [9, 27]: 3.59
pKd [10, 27]: below the threshold
pKd [11, 27]: 3.66
pKd [12, 27]: below the threshold
pKd [13, 27]: below the threshold
pKd [14, 27]: below the threshold
pKd [15, 27]: below the threshold
pKd [16, 27]: below the threshold
pKd [17, 27]: 4.8
pKd [18, 27]: 4.02
pKd [19, 27]: 3.66
pKd [20, 27]: 4.63
pKd [21, 27]: below the threshold
pKd [22, 27]: below the threshold
pKd [23, 27]: below the threshold
pKd [24, 27]: 4.06
pKd [25, 27]: 4.4
Binder: PVRVCEETSL [OTULIN, Q96BN8]

pKd [1, 27]: below the threshold
pKd [2, 27]: below the threshold
pKd [3, 27]: below the threshold
pKd [4, 27]: 4.87
pKd [5, 27]: below the threshold
pKd [6, 27]: below the threshold
pKd [7, 27]: below the threshold
pKd [8, 27]: below the threshold
pKd [9, 27]: below the threshold
pKd [10, 27]: below the threshold
pKd [11, 27]: below the threshold
pKd [12, 27]: 3.24
pKd [13, 27]: below the threshold
pKd [14, 27]: below the threshold
pKd [15, 27]: below the threshold
pKd [16, 27]: below the threshold
pKd [17, 27]: 4.2
pKd [18, 27]: below the threshold
pKd [19, 27]: below the threshold
pKd [20, 27]: 4.17
pKd [21, 27]: below the threshold
pKd [22, 27]: below the threshold
pKd [23, 27]: below the threshold
pKd [24, 27]: 3.73
pKd [25, 27]: below the threshold
Binder: VDFPPKESSL [ACVR2A, P27037]
